{
  "source": "patent US20190040477",
  "key": {"[1]": {"system": "GST-mRtACPII (S1253A mutant of the second ACP domain of Rhodosporidium toruloides Fas2, residues 1213-1375, as GST fusion protein)"}, "[2]": {"system": "GST-wRtACPI (wild type first ACP domain of Rhodosporidium toruloides Fas2, residues 1022-1184, as GST fusion protein)"}, "[3]": {"system": "GST-mRtACPI (S1062A mutant of the first ACP domain of Rhodosporidium toruloides Fas2, residues 1022-1184, as GST fusion protein)"}, "[4]": {"system": "GST-wRtACPII (wild type second ACP domain of Rhodosporidium toruloides Fas2, residues 1213-1375, as GST fusion protein)"}},
  "data": [
    {"substance": "GST-RtPPT (phosphopantetheinyl transferase domain of Rhodosporidium toruloides Fas2, residues 2809-2928, as GST fusion protein)", "values": [
      {"measurement": "ΔM (Da): change in molecular weight of the ACP after treatment by PPT, MALDI-TOF mass spectrometry (in vitro phosphopantetheinylation)", "setting": "[1]", "result": 46, "unit": "Da"},
      {"measurement": "ΔM (Da): gain in molecular weight of the ACP after treatment by PPT, MALDI-TOF mass spectrometry (in vitro phosphopantetheinylation)", "setting": "[2]", "result": 332, "unit": "Da"},
      {"measurement": "ΔM (Da): change in molecular weight of the ACP after treatment by PPT, MALDI-TOF mass spectrometry (in vitro phosphopantetheinylation)", "setting": "[3]", "result": 2, "unit": "Da"},
      {"measurement": "ΔM (Da): gain in molecular weight of the ACP after treatment by PPT, MALDI-TOF mass spectrometry (in vitro phosphopantetheinylation)", "setting": "[4]", "result": 322, "unit": "Da"}
    ]}
  ]
}
